{"source": "patent US20230123431", "proteins": {"B1": {"name": "lipoamidase from Enterococcus faecalis (EfLPA) (protein)", "chain": "MLSLRQSIRFFKPATRTLCSSRYLLQQKPMLAQESILETTVQTETESVTTETSQTVANLESETTSQTVMQEKESSSAIAESSSRNVVAVTTETTNEIQNSGTDGKAVSAESVFSEADYKQATALELATLVREKKVTSEELVKIALAITKRENPTLNAVITLREEAALTEAKALQDTGQPFLGVPLLLKGLGQSLKGESNTNGFGFLRDQVAGGTSTFVKALQNAGFIIIGQTNYPELGWKNISDSKLYGVSVNPWNPNHYSGGSSGGAGASVAAAFVPIASGSDAGGSIRIPASWTGTVGLKPSRGVIIGNSNSAKGQTVHFGLSRTVADTNALFETLLTKKDLPAGHLSQAQPIAYTTESPAGTPVSAEAKEAVAEAVAFLKDQGYTLVEVKHPVDGERLMKNYYTVAAGSAGIADFMARQKLKRPLERNDVELLTWALFQTGKNITSEETTAAWTDIALQAQAMDEFYQQYPILLTPTTAATAPSIDNPLLKPEHAAQMEKIDQLSPAEQKQLIYDQWLTAFTYTPFTQQANLFGHPALSVPTYVSKEGLPLGIQFNSALNEDRTLLQLGALFENNHKINQPHVEEPDKDKEPDASGEPEKDKDPNASGEPDKDKEPDASGEPDKDKEPDASGEPDKDKEPDASGKPDKDKETKTSEGPIEGKDQNQNPDKAGKTTSGSSLDNSLNSSANQGTKSTESTHAFSNKSMIGKQEQLPKKVLPKAGAEVPSTFWIVLGGAFLVTSGTIYIRKTRKHHHHHHHHHHHH"}}, "key": {"[1]": {"target": "T1, Gcv3p (H protein of the glycine cleavage system), lipoylated", "T1 chain": "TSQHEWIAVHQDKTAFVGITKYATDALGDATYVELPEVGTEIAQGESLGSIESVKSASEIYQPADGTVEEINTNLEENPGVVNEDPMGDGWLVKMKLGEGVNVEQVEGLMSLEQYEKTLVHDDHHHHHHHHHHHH"}, "[2]": {"target": "T2, Lat1p (lipoate-bound subunit of pyruvate dehydrogenase, PDH), P12695", "T2 chain": "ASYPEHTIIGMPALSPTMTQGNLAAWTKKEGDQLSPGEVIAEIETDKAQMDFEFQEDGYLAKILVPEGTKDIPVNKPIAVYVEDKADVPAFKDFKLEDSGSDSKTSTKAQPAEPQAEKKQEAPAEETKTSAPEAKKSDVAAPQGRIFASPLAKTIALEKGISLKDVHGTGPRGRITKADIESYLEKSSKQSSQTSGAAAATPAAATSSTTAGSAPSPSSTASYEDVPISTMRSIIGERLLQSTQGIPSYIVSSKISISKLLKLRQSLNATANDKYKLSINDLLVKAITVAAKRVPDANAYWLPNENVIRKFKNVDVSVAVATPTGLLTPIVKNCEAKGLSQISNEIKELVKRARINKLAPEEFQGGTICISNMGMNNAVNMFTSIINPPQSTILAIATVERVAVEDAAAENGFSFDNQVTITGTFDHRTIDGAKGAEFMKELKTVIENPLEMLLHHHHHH"}, "[3]": {"target": "T3, Kgd2p (lipoate-bound subunit of alpha-ketoglutarate dehydrogenase, KGDC), P19262", "T3 chain": "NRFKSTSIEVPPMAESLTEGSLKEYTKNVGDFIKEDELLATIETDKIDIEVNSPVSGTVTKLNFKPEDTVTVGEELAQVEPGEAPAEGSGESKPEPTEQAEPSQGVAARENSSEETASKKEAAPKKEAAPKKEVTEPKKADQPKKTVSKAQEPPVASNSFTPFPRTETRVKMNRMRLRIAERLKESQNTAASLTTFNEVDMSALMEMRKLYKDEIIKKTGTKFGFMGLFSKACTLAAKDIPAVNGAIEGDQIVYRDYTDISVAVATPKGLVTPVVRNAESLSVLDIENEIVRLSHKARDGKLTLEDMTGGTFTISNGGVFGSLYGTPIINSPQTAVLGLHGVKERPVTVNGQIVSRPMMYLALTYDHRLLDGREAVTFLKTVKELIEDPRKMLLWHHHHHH"}}}
{"protein": "B1", "values": [{"measurement": "lipoic acid released (LC-MS/MS, confirmed by GC-MS) after incubation of the purified proteins at 37 C for 2 h", "setting": "[1]", "result": "Only the reaction of EfLPA with Gcv3p resulted in a peak with m/z 205.0360 (FIG. 5B) indicative of lipoic acid"}, {"measurement": "lipoic acid released (LC-MS/MS) after incubation of the purified proteins at 37 C for 2 h", "setting": "[2]", "result": "no lipoic acid was observed in the reaction mixtures containing EfLPA with Kgd2p or Lat1p individually"}, {"measurement": "lipoic acid released (LC-MS/MS) after incubation of the purified proteins at 37 C for 2 h", "setting": "[3]", "result": "no lipoic acid was observed in the reaction mixtures containing EfLPA with Kgd2p or Lat1p individually"}]}
